Data taken from patent publication US20240190968A1 (HEFEI TG IMMUNOPHARMA, published 2024).
Each block holds one binder with its values, some of them ahead of it.

Experiments:
[1] = molecular target: T1, recombinant B7H6 extracellular region Fc fusion protein (human); experiment: ELISA, B7H6-Fc coated at 1 ug/mL, HRP mouse anti-human IgG (Fab-specific) secondary antibody, OD450
T1 construct: also called B7H6-Fc; B7H6-Fc fusion protein
Experimental: The ELISA assay was used to detect the binding characteristics of the humanized B7H6 antibody. The B7H6 extracellular region Fc fusion protein (B7H6-Fc) described above was coated into a 96-well plate. The signal strength after antibody addition was used to determine the binding characteristics of antibodies and B7H6.
The B7H6-Fc fusion protein (amino acid sequence as set forth in SEQ ID NO. 22) was diluted to 1 μg/mL with PBS buffer and added to a 96-well plate in a volume of 100 μL/well and left overnight at 4° C. The PBS buffer solution was sucked off from the 96-well plate. The plate was washed 6 times with PBST (pH 7.2, PBS containing 0.1% Tween 20) buffer solution. 200 μL/well PBS/10% BSA was added and incubated at 37° C. for 2 hours for blocking. The blocking solution was removed. The plate was washed 6 times with PBST. B7H6 antibody to be tested which diluted with PBST/0.05% BSA to an appropriate concentration was added at 100 µL/well, and incubated at 37° C. for 1 h. The reaction system was removed. The plate was washed 6 times with PBST. HRP (horseradish peroxidase)-labeled mouse anti-human IgG (Fab-specific) secondary antibody (Sigma) was diluted with PBST/0.05% BSA at 100 μL/well and incubated for 1 h at 37° C. The plate was washed 6 times with PBST, and 80 μL/well TMB (tetramethylbenzidine) was added. […] The absorbance at […] was read with a microplate reader.

[2] = molecular target: T2, recombinant Cynomolgus monkey B7H6 extracellular region Fc fusion protein (Cynomolgus monkey); experiment: ELISA, cynoB7H6-Fc coated at 1 ug/mL, HRP mouse anti-human IgG (Fab-specific) secondary antibody, OD450
T2 construct: also called cynoB7H6-Fc; cynoB7H6-Fc fusion protein
Experimental: The ELISA assay was used to detect the binding characteristics of the humanized B7H6 antibody. The Cynomolgus monkey B7H6 extracellular Fc fusion protein (cynoB7H6-Fc) was coated into a 96-well plate. The signal strength after antibody addition was used to determine the binding characteristics of the antibody and monkey B7H6.
The cynoB7H6-Fc fusion protein (amino acid sequence as set forth in SEQ ID NO. 23) was diluted to 1 μg/mL with PBS buffer and added to a 96-well plate in a volume of 100 μL/well and left overnight at 4° C. The PBS buffer solution was sucked off from the 96-well plate. The plate was washed 6 times with PBST (pH 7.2, PBS containing 0.1% Tween 20) buffer solution. 200 μL/well of PBS/10% BSA was added and incubated at 37° C. for 2 hours for blocking. The blocking solution was removed. The plate was washed 6 times with PBST. B7H6 antibody to be tested which was diluted with PBST/0.05% BSA to an appropriate concentration was added at 100 µL/well, and incubated at 37° C. for 1 h. The reaction system was removed. The plate was washed 6 times with PBST. HRP (horseradish peroxidase)-labeled mouse anti-human IgG (Fab-specific) secondary antibody (Sigma) was diluted with PBST/0.05% BSA at 100 μL/well and incubated for 1 h at 37° C. […] The absorbance at […] was read with a microplate reader.

[3] = molecular target: T3, B7H6 protein overexpressed in HL60 cells (human, UniProt Q68D85 25-454); experiment: flow cytometry on HL60-B7H6 cells, Alexa-647 mouse anti-human IgG-Fc secondary antibody, binding ratio (%)
T3 construct: Full-length entry expressed from a lentiviral vector; also called HL60-B7H6
T3 sequence: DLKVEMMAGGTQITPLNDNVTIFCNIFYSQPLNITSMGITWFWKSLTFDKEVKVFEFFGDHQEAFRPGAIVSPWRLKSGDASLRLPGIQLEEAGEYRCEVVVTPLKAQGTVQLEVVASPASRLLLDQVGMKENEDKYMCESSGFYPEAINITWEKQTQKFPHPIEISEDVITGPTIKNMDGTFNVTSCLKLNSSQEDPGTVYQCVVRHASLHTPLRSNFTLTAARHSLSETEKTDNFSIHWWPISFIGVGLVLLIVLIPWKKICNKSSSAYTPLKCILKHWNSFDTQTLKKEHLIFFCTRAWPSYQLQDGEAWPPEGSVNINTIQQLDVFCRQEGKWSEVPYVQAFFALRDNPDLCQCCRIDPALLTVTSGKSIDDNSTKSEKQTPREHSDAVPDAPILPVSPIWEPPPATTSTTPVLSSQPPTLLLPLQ
Experimental: The flow cytometry assay was used to detect the binding characteristics of the B7H6 antibody. The B7H6 protein (HL60-B7H6) was overexpressed in HL60 cells (ATCC No. CCL-240) (as shown in Example 3), and the signal strength after antibody addition was used to determine the binding characteristics of the antibody and B7H6.
HL60-B7H6 cells were diluted to 2×10⁶/mL with PBS and added to a 1.5 mL EP tube in a volume of 100 μL/tube. 10 μL/tube of mouse serum was added thereto and was blocked at 4° C. for 30 min. The humanized B7H6 antibody was added at 1 μg/tube and incubated for 30 min at 4° C. The EP tube was added with 1 mL of PBS and centrifuged at 3500 rpm at 4° C. for 5 min. The supernatant was discarded and the precipitate was washed once more with PBS. After centrifugation, the supernatant was discarded. The cells were resuspended with 100 μL/tube of PBS, 1 μL/tube of Alexa-647-labeled mouse anti-human IgG-Fc secondary antibody (Biolegend) was added thereto, and incubated at 4° C., under the condition of avoiding light, for 30 min. The cell-containing precipitate was washed twice with PBS and the supernatant was discarded after centrifugation. The cells were resuspended with 200 μL/tube of PBS and detected by flow cytometry.

[4] = molecular target: T1, recombinant B7H6 extracellular region …; experiment: ELISA, B7H6-Fc coated at 1 ug/mL, HRP anti-mouse secondary antibody, OD450
Experimental: The ELISA assay was used to detect the binding characteristics of the B7H6 antibody. The B7H6 extracellular region Fc fusion protein (B7H6-Fc) described above was coated into a 96-well plate. The signal strength after antibody addition was used to determine the binding characteristic of the antibody and B7H6.
The B7H6-Fc fusion protein (amino acid sequence as set forth in SEQ ID NO. 22) was diluted to 1 μg/mL with PBS buffer and added to a 96-well plate in a volume of 100 μL/well and left overnight at 4° C. The PBS buffer solution was sucked off from the 96-well plate. The plate was washed 6 times with PBST (pH 7.2, PBS containing 0.1% Tween 20) buffer solution. 200 μL/well PBS/10% BSA was added and incubated at 37° C. for 2 hours for blocking. The blocking solution was removed. The plate was washed 6 times with PBST. 100 μL/well B7H6 antibody to be tested was diluted to an appropriate concentration with PBST/0.05% BSA, and incubated at 37° C. for 1 h. The reaction system was removed. The plate was washed 6 times with PBST. HRP (horseradish peroxidase)-labeled anti-mouse antibody secondary antibody was diluted with PBST/0.05% BSA at 100 μL/well and incubated for 1 h at 37° ° C. The plate was washed 6 times with PBST and 80 μL/well TMB (tetramethylbenzidine) was added. […] The absorbance at […] was read with a microplate reader.

[5] = molecular target: T1, recombinant B7H6 extracellular region …; experiment: SPR, Biacore T200, B7H6-Fc amine-coupled to CM5 chip, antibody injected, 1:1 Langmuir model; murine 12F5
Experimental: (§1) The Biacore method is widely-recognized as an objective method for detecting the mutual affinity and binding kinetics of proteins. The affinity and binding kinetics of the B7H6 antibody of the present disclosure are analyzed and characterized through Biacore T200.
(§2) The B7H6 extracellular segment Fc fusion protein (B7H6-Fc) was covalently attached to a CM5 (GE) chip using standard amino coupling methods. A series of concentration gradients of B7H6 antibody diluted in PBS were then injected with each cycle and regenerated with 10 mM NaOH solution. The antigen-antibody binding kinetics were traced for 3 minutes and the dissociation kinetics were traced for 10 minutes, and the resulting data were analyzed by a 1:1 (Langmuir) binding model using GE's BIAevaluation software.

[6] = molecular target: T3, B7H6 protein overexpressed in HL60 cells; experiment: flow cytometry on HL60-B7H6 cells, Alexa-647 goat anti-mouse secondary antibody, binding ratio (%)
Experimental: The flow cytometry assay was used to detect the binding characteristics of B7H6 antibody and to overexpress B7H6 protein (HL60-B7H6, SEQ ID NO. 21; SEQ ID NO. 54) in HL60 cells (ATCC NO. CCL-240). The expression vector is pLVX-EF1a-B7H6-IRES-ZsGreen, and the signal strength after antibody addition is used to determine the binding characteristics of the antibody and B7H6.
HL60-B7H6 cells were diluted to 2×10⁶/mL with PBS and were added to a 1.5 ml EP tube at 100 μL/tube. Goat serum at 10 μL/tube was added thereto and was blocked at 4° C. for 30 min. The B7H6 antibody was added at 1 μg/tube and incubated for 30 min at 4° C. The EP tube was added with 1 mL of PBS and centrifuged at 3500 rpm at 4° C. for 5 min. The supernatant was discarded and the precipitate was washed once more with PBS. After centrifugation, the supernatant was discarded, and the cells were resuspended with 100 μl/tube of PBS, and 0.1 μL/tube of goat anti-mouse antibody secondary antibody (Invitrogen) labeled with Alexa-647 was added thereto, and incubated at 4° C., under the condition of avoiding light, for 30 min. The cell-containing precipitate was washed twice with PBS and the supernatant was discarded after centrifugation. The cells were resuspended with 200 μL/tube of PBS and detected by flow cytometry.

[7] = molecular target: T1, recombinant B7H6 extracellular region …; experiment: SPR, Biacore T200, B7H6-Fc amine-coupled to CM5 chip, antibody injected, 1:1 Langmuir model; murine 12G4
Experimental: as §1, §2

T2 sequence (chain, as listed by the source limits assumed): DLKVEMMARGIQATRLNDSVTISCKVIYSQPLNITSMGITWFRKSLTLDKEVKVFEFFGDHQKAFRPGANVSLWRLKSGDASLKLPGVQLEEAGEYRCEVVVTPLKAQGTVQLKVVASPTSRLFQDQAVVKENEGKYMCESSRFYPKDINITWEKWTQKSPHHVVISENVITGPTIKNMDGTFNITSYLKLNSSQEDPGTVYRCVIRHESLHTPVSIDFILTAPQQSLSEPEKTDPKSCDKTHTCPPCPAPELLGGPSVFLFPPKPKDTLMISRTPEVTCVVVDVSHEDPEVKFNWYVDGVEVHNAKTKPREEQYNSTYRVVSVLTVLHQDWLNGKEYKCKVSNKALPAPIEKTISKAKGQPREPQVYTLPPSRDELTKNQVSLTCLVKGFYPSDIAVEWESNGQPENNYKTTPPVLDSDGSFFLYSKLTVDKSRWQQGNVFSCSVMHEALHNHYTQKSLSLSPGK

B1: humanized antibody h12G4 (antibody, human IgG1, kappa, V domains shown)
VH: EVQLVQSGAEVKKPGASVKVSCKASGYTFTDYNMDWVRQAPGKGLEWIGDINPNNGGTLYNQKFRGRVTLTVDKSISTAYMELSRLRSDDTAVYYCARSEVFYGNYADYWGQGTTVTVSS
VL: DIVLTQTPLSLSVTPGQPASISCKASQSVDYDGDSYMNWYLQKPGQPPQLLIYAASTLHSGVPDRFSGSGSGTDFTLKISRVEAEDVGVYYCQQSKEDPRTFGQGTKLEIKR
notes: also called humanized 12G4
EC50 (read off the curve) [1]: ~0.05 µg/mL | binding result [2]: binds | EC50 (read off the curve) [3]: ~0.05 µg/mL

B4: humanized antibody h12F5 (antibody, human IgG1, kappa, V domains shown)
VH: EVQLVQSGAEVKKPGASVKVSCKASGYTFTSYYMYWVRQAPGQGLEWIGEINPSNGGTNFNEKFKSRVTLTVDKSISTAYMELSRLRSDDTAVYYCTRTLYYGNDWYFDVWGQGTTVTVSS
VL: EIVLTQSPDFQSVTPKEKVTITCSASSSVNYMHWYQQKPDQSPKRLIYDTSKLASGVPSRFSGSGSGTDYTLTINSLEAEDAATYYCQQWSSNPVTFGQGTKLEIKR
notes: also called humanized 12F5
EC50 (read off the curve) [1]: ~0.02 µg/mL | EC50 (read off the curve) [3]: ~0.03 µg/mL

The next lines start with the values.

EC50 (read off the curve) [4]: ~0.03 µg/mL | Kd [5]: 2.2 nM | EC50 (read off the curve) [6]: ~6 ng/mL
B2: murine antibody 12F5 (antibody, mouse IgG2a, kappa, V domains shown)
VH: QVQLQQSGAELVKPGASVKLSCKASGYTFTSYYMYWVKQRPGQGLEWIGEINPSNGGTNFNEKFKSKATLTVDKSSSTAYMQLSSLTSEDSAVYYCTRTLYYGNDWYFDVWGAGTTVTVSS
VL: QIVLTQSPAIMSASPGEKVTMTCSASSSVNYMHWYQQKSGTSPKRWIYDTSKLASGVPARFSGSGSGTSYSLTISSMEAEDAATYYCQQWSSNPVTFGAGTKLELKR
notes: also called murine 12F5; B7H6 murine 12F5 antibody

EC50 (read off the curve) [4]: ~0.03 µg/mL | Kd [7]: 0.15 nM | EC50 (read off the curve) [6]: ~10 ng/mL
B3: murine antibody 12G4 (antibody, mouse IgG2a, kappa, V domains shown)
VH: EVLLQQSGPEVVKPGASVKITCKASGYTFTDYNMDWVKQSHGKSLEWIGDINPNNGGTLYNQKFRGRVTLIVDKSSSTAYMELRSLTSDDTAVYYCARSEVFYGNYADYWGQGTTLTVSS
VL: DIVLTQSPVSLAVPLGQRATISCKASQSVDYDGDSYMNWYQQKPGQPPKLLIYAASTLHSGIPVRFSGSGSGTDFTLNIHPVEEEDAASYYCQQSKEDPRTFGGGTKLEIKR
notes: also called murine 12G4
